Assays:
[1] = target: SYNAGIS®; test: SPR BIAcore 3000, both injected at 1 µM over immobilized SYNAGIS
[2] = target: SYNAGIS®; test: SPR BIAcore 3000, SYNAGIS immobilized via primary amino groups, equilibrium binding of soluble SynBP01

Chain of SYNAGIS® (VH, as listed by the source, chain 1 of 2): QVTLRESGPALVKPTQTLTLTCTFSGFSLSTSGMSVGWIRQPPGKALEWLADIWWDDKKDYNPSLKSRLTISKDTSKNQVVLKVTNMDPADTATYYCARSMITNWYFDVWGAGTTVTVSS
Chain of SYNAGIS® (VL, as listed by the source, chain 2 of 2): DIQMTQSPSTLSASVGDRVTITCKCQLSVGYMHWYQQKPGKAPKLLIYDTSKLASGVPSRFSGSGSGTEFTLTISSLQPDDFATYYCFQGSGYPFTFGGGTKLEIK

| fold increase in total response units compared to SynBP01 [1] [fold] | Kd [2] [µM] | Binder |
| --- | --- | --- |
| 6 |  | SynBP01-Fc (Fc fusion, not shown: a dimerising Fc or GST) IEVKDVTDTTALITWSPPSVLVGYTIELTYGIKDVPGDRTTIDLTEDENQYSIGNLKPDTEYEVSLISVTEFGRRRSKETFTT |
|  | 16 | SynBP01 (designed binder) AAIEVKDVTDTTALITWSPPSVLVGYTIELTYGIKDVPGDRTTIDLTEDENQYSIGNLKPDTEYEVSLISVTEFGRRRSKETFTTGGGTLEHHHHHH |

— patent US20140141994A1
